Assay results reported in publication PMC2115722.

Biological target: Acanthamoeba actin (Acanthamoeba castellanii)
Experiment: cross-linking

Acanthamoeba profilin I (natural protein)
stoichiometry N (profilin per actin): 1
